In the assay the target is GS-TAP-tagged Optn (human) (UniProt Q96CV9). As to the kind of experiment: TAP of GS-tagged Optn from HEK-293 cells, LC-MSMS.
Chain of GS-TAP-tagged Optn (human) (Q96CV9 whole entry E322K): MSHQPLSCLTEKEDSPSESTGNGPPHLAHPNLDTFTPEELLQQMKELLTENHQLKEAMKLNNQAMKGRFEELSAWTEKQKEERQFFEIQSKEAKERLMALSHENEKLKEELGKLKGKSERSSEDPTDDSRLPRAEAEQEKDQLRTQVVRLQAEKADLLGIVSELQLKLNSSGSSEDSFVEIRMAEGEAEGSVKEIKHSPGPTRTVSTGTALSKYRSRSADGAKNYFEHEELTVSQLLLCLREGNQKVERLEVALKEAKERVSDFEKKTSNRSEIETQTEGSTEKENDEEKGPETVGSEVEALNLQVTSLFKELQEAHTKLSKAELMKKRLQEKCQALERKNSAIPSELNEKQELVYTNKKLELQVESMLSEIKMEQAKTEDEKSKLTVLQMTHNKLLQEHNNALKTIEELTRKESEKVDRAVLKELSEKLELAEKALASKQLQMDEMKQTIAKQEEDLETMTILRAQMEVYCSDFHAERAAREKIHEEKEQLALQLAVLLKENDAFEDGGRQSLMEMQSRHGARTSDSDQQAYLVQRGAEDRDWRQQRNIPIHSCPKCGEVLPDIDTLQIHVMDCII
Chain of [..] LIGHT CHAIN 2, [..]. (Q96FJ2 whole entry): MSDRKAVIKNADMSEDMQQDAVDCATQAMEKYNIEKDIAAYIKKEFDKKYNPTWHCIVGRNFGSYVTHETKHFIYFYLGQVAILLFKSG
Chain of MYOSIN, LIGHT CHAIN 6, ALKALI, SMOOTH MUSCLE AND NON-MUSCLE ISOFORM 1. (P60660 2-151): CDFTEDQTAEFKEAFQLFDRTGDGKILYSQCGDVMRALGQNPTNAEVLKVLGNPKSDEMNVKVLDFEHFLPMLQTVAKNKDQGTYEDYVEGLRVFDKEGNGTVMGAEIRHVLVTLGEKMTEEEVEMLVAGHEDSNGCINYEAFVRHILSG
As for “285 KDA PROTEIN. (from UniProt Q13813 1-2472)”, the sequence coverage turned out to be 0.03 and the unique peptide counts worked out at 7.

“ALPHA-ACTININ-4. (from UniProt O43707 1-911)” gave a sequence coverage of 0.02 and a unique peptide counts of 2.

In turn, “COMPLEMENT COMPONENT 1 Q SUBCOMPONENT-BINDING PROTEIN, MITOCHONDRIAL PRECURSOR. (from UniProt Q07021 74-282)” had a sequence coverage of 0.22 and a unique peptide counts of 5.

As for CORONIN-1C. (from UniProt Q9ULV4 1-474), the sequence coverage was 0.25 and the unique peptide counts came out at 13.

“DESMOGLEIN 2 PREPROPROTEIN. (from UniProt Q14126 50-1118)” returned a sequence coverage of 0.02 and a unique peptide counts of 2.

In turn, “DYNEIN LIGHT CHAIN 1, CYTOPLASMIC. (from UniProt P63167 1-89)” displayed a sequence coverage of 0.64 and a unique peptide counts of 5.

“ELONGATION FACTOR 1-ALPHA 2. (from UniProt Q05639 2-463)” showed a sequence coverage of 0.06 and a unique peptide counts of 3.

Consider FILAMIN 1. (from UniProt P21333 2-2647), for which the sequence coverage was 0.05 and the unique peptide counts stood at 10.

As to “GALPHAI2 PROTEIN. (from UniProt P04899 2-355)”, the sequence coverage stood at 0.15 and the unique peptide counts was determined as 5.

For the substance “GUANINE NUCLEOTIDE-BINDING PROTEIN G(I)/G(S)/G(T) SUBUNIT BETA 2. (from UniProt P62879 2-340)”, the sequence coverage came to 0.06 and the unique peptide counts came to 2.

The substance “GUANINE NUCLEOTIDE-BINDING PROTEIN G. (from UniProt P08754 2-354)” had a sequence coverage of 0.19 and a unique peptide counts of 6.

The substance “HEAT SHOCK 70 KDA PROTEIN 1. (from UniProt P0DMV9 2-641)” displayed a sequence coverage of 0.25 and a unique peptide counts of 17.

As for “HEAT SHOCK 70 KDA PROTEIN 1L. (from UniProt P34931 1-641)”, the sequence coverage stood at 0.12 and the unique peptide counts was 7.

In the case of “HEAT SHOCK 70 KDA PROTEIN 6. (from UniProt P17066 1-643)”, the sequence coverage was 0.12 and the unique peptide counts came to 8.

“ISOFORM 1 OF HEAT SHOCK COGNATE 71 KDA PROTEIN. (from UniProt P11142 2-646)” returned a sequence coverage of 0.24 and a unique peptide counts of 14.

“ISOFORM 1 OF MYOSIN IB. (from UniProt O43795 1-1136)” gave a sequence coverage of 0.03 and a unique peptide counts of 3.

With “ISOFORM 1 OF MYOSIN PHOSPHATASE RHO-… PROTEIN. (from UniProt Q6WCQ1 2-1025)”, the sequence coverage turned out to be 0.21 and the unique peptide counts was 17.

On to “ISOFORM 1 OF MYOSIN-10. (from UniProt P35580 1-1976)”, for which the sequence coverage stood at 0.04 and the unique peptide counts was determined as 7.

“ISOFORM 2 OF ANKYCORBIN. (from UniProt Q9P0K7 1-983)”: the sequence coverage is 0.12 and the unique peptide counts was 11.

“ISOFORM LONG OF SPECTRIN BETA CHAIN, BRAIN 1. (from UniProt Q01082 2-2364)”: the sequence coverage stood at 0.01 and the unique peptide counts is 2.

In the case of “ISOFORM SNAP-23A OF SYNAPTOSOMAL-ASSOCIATED PROTEIN 23. (from UniProt O00161 1-211)”, the sequence coverage came to 0.11 and the unique peptide counts was found to be 2.

“MYOSIN REGULATORY LIGHT CHAIN. (from UniProt O14950 2-172)” registered a sequence coverage of 0.19 and a unique peptide counts of 3.

“MYOSIN, LIGHT CHAIN 6, ALKALI, SMOOTH MUSCLE AND NON-MUSCLE ISOFORM 1.” gave a sequence coverage of 0.28 and a unique peptide counts of 5.

MYOSIN-9. (from UniProt P35579 2-1960) had a sequence coverage of 0.06 and a unique peptide counts of 10.

“PEROX1REDOXIN-1. (from UniProt Q06830 2-199) (enzyme)” yielded a sequence coverage of 0.11 and a unique peptide counts of 2.

“PRKC APOPTOSIS WT1 REGULATOR PROTEIN. (from UniProt Q96IZ0 1-340)” yielded a sequence coverage of 0.09 and a unique peptide counts of 2.

“RAS-RELATED PROTEIN RAB-35. (from UniProt Q15286 1-201)” showed a sequence coverage of 0.16 and a unique peptide counts of 3.

In the case of “STRESS-70 PROTEIN, MITOCHONDRIAL PRECURSOR. (from UniProt P38646 47-679)”, the sequence coverage is 0.09 and the unique peptide counts was determined as 5.

Regarding “TROPOMYOSIN 1 ALPHA CHAIN ISOFORM 7. (from UniProt P09493 1-284)”, the sequence coverage was 0.19 and the unique peptide counts worked out at 5.

Substance “TROPOMYOSIN 4. (from UniProt P67936 2-248)” yielded a sequence coverage of 0.18 and a unique peptide counts of 6.

“[..] LIGHT CHAIN 2, [..]. (from UniProt Q96FJ2 1-89)”: the sequence coverage was determined as 0.64 and the unique peptide counts came out at 5.

In the case of “type 1 protein phosphatase catalytic subunit PP1β (from UniProt P62140 1-327) (enzyme)”, the sequence coverage came to 0.2 and the unique peptide counts was found to be 6.

(Values after patent publication US20140336126A1.)
